Assay results reported in the supplement of paper PMC9732359.
± gives the uncertainty stated by the source.

Assay: protein stability index of a GFP-peptide fusion (yeast GPS) (PSI 1-4); higher = more stable; sorted into four equal gates, so the index is relative within each strain
Conditions: pdr5∆
How it was run: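 Peptides tiling yeast proteins in 17-residue segments were fused downstream of GFP, with Cherry expressed from the same plasmid. As a pooled library in yeast, mid-log cultures grown in leucine-free medium were sorted into four equal gates by GFP/Cherry fluorescence ratio. Gate plasmids were PCR-amplified and Illumina-sequenced, and barcodes linked reads to strains. Each peptide received a protein stability index equal to the sum of each gate's read frequency times its gate number.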

Row | Sequence | protein stability index
1 | YYVGQVMRNNESTETGY [DIS3] | 3.19 ± 0.092

Same assay, conditions: san1∆

Row | Sequence | protein stability index
2 | YENKDNLTAGIIVAGYD [PRE3] | 2.98 ± 0.04
3 | YESQTFSSKNEWRKSAI [PRP8] | 3.29 ± 0.06
4 | YGEAPTSPGFGVSSPGF [RPO21] | 2.93 ± 0.17
5 | YGEATSPFGAYGEAPTS [RPO21] | 2.9 ± 0.064
6 | YGESDIHFREHQSELII [YMR129W/POM152] | 2.21 ± 0.13
7 | YGIFGEGVEYSFLHVDD [POP8] | 1.92 ± 0.12
8 | YGIVAMAATATDKIGRS [FAS2] | 1.65 ± 0.092
9 | YGPPGTGKTLLAKAVAA [RPT4] | 1.98 ± 0.089
10 | YGSSPKLLATSTKIIML [SRB8] | 1.63 ± 0.16
11 | YHLHPTFANPNRTFTDP [TAF14] | 2.21 ± 0.1
12 | YHSAGGRDKHALSLLYH [SSN3] | 3.19 ± 0.059
13 | YHTNPGHSQFTSHYQNY [RPN4] | 3.02 ± 0.079
14 | YIELLPNADDIRDSIPQ [DIS3] | 2.87 ± 0.078
15 | YIHLAYSRSVDKEWVFA [SSN2] | 1.84 ± 0.091
16 | YIKSMDLISKKTKTSLL [RPR2] | 2.78 ± 0.075
17 | YINVNPQEETITFLIEK [ECM29] | 2.91 ± 0.064
18 | YKAISAQADKQDISSST [FAS2] | 2.3 ± 0.062
19 | YKALRGMVSHKTARGKA [RPL16A] | 2.51 ± 0.096
20 | YKGMASNDERIVKRLYE [BRR2] | 3.31 ± 0.052
21 | YKKPTGGIVTVRSEMGE [FAS1] | 1.32 ± 0.18
22 | YKLFIWLVVPTIYNLQH [YML031W/NDC1] | 1.36 ± 0.059

Row | Sequence | protein stability index
23 | YKVEHPFFARFKLRIQT [RPB11] | 1.37 ± 0.11
24 | YKVENVTLYWNNAKLLT [ESC2] | 1.71 ± 0.076
25 | YLAKLSKQLSLEEKKKR [IRR1] | 2.44 ± 0.11
26 | YLDQHKRTRLESLKNLN [SMC3] | 1.7 ± 0.098
27 | YLFDEIDAALDKQYRTA [SMC3] | 2.61 ± 0.1
28 | YLFHNDRIIHTWRTQLA [ECM29] | 1.47 ± 0.064
29 | YLKESKRKYDEITHPPS [SWI3] | 3.02 ± 0.1
30 | YLLEELESYLIVHHPYQ [SSN8] | 2.43 ± 0.056
31 | YLMTYPQQPMVKTKTIE [RET1] | 1.61 ± 0.24
32 | YLNGTLIGSIRFPTKFV [RET1] | 1.64 ± 0.088
33 | YLYCLDNNITEMLEENF [YCG1] | 2.63 ± 0.05
34 | YMEQGNNKIITLVKGPK [SKI6] | 2.8 ± 0.054
35 | YMHDTELNYFVGCKNLE [GRR1] | 3.08 ± 0.079
36 | YNEFLYSKAGREELERV [QCR8] | 3.35 ± 0.1
37 | YNNRSLLDFNTALKQYE [RPN6] | 3.15 ± 0.067
38 | YPDLKAFHNNLKFLYLL [MED1] | 1.83 ± 0.074
39 | YPMMHQVRNQVFMLDTK [RGR1] | 2.3 ± 0.081
40 | YPNSSKLKRNSDRREHD [LIN1] | 3.02 ± 0.045
41 | YQCAMGKQAIGAIAYNQ [RET1] | 2.78 ± 0.047
42 | YQISAYQTRARQKARTD [RPR2] | 2.36 ± 0.031
43 | YQLYTSNPSGNYTGWKA [PRE9] | 3.14 ± 0.055

Row | Sequence | protein stability index
44 | YQMQSNYESVFTYNKFL [YIL149C/MLP2] | 1.55 ± 0.14
45 | YRTPGSSGVLSSNIAGT [SSN2] | 3.03 ± 0.14
46 | YSIPHPSENLLNIRIQT [RPC19] | 2.65 ± 0.12
47 | YSKAAEPHAVSLAWSAD [ASC1] | 2.8 ± 0.065
48 | YSKAKYPDLQPFVLAEN [CDC53] | 2.13 ± 0.07
49 | YSLQPSVDITGGPWFTD [RPC34] | 2.86 ± 0.089
50 | YSLRLINKEIFHHWLVE [SRB8] | 1.55 ± 0.13
51 | YSPNTLGHPDNYIPGNP [COB] | 2.9 ± 0.064
52 | YSTLKELLEYSDDIAEN [YCG1] | 2.74 ± 0.053
53 | YTKKHLSSHSSTNSNSK [RPN4] | 2.95 ± 0.055
54 | YTQQQALEYIGAKVKTM [RET1] | 2.25 ± 0.086
55 | YTVNVVDVFAMPQSGTG [RPN11] | 3.3 ± 0.063
56 | YTYLYVRMLASPMLYKV [BRR2] | 1.22 ± 0.21
57 | YVDPETTYTYQQPNPLQ [ROX3] | 2.02 ± 0.12
58 | YVMERPKNVPTSKWLNS [YDL116W/NUP84] | 2.63 ± 0.072
59 | YVNVAISIYNMLPPKSV [SSN2] | 2.01 ± 0.062
60 | YWSDKKADTDTLLYEQI [SNF5] | 2.64 ± 0.083
61 | YYGLVIDLLLLGQERAT [PRP8] | 1.23 ± 0.11
62 | YYSRITLLRLNELLDLT [RPN5] | 2.44 ± 0.065
63 | YYVGQVMRNNESTETGY [DIS3] | 3.18 ± 0.055

Same assay, conditions: ubr1∆

Row | Sequence | protein stability index
64 | YENKDNLTAGIIVAGYD [PRE3] | 2.78 ± 0.036
65 | YERRFGPYFVGPVVAGI [PUP3] | 3.11 ± 0.16
66 | YESQTFSSKNEWRKSAI [PRP8] | 3.01 ± 0.059
67 | YGEAPTSPGFGVSSPGF [RPO21] | 3.17 ± 0.054
68 | YGEATSPFGAYGEAPTS [RPO21] | 2.79 ± 0.054
69 | YGESDIHFREHQSELII [YMR129W/POM152] | 2.49 ± 0.077
70 | YGIFGEGVEYSFLHVDD [POP8] | 2.71 ± 0.049
71 | YGIVAMAATATDKIGRS [FAS2] | 2.26 ± 0.051
72 | YGPPGTGKTLLAKAVAA [RPT4] | 1.93 ± 0.05
73 | YGSSPKLLATSTKIIML [SRB8] | 1.24 ± 0.069
74 | YHLHPTFANPNRTFTDP [TAF14] | 1.7 ± 0.036
75 | YHSAGGRDKHALSLLYH [SSN3] | 3.32 ± 0.066
76 | YHTNPGHSQFTSHYQNY [RPN4] | 3.04 ± 0.054
77 | YIELLPNADDIRDSIPQ [DIS3] | 2.75 ± 0.039
78 | YIHLAYSRSVDKEWVFA [SSN2] | 1.72 ± 0.038
79 | YIKSMDLISKKTKTSLL [RPR2] | 2.79 ± 0.051
80 | YINVNPQEETITFLIEK [ECM29] | 3.17 ± 0.06
81 | YIYLSHETLARSSEEIN [RPN3] | 3.15 ± 0.18
82 | YKAISAQADKQDISSST [FAS2] | 2.83 ± 0.045
83 | YKALRGMVSHKTARGKA [RPL16A] | 1.84 ± 0.12
84 | YKGMASNDERIVKRLYE [BRR2] | 3.51 ± 0.047
85 | YKKPTGGIVTVRSEMGE [FAS1] | 1.39 ± 0.082

Row | Sequence | protein stability index
86 | YKLFIWLVVPTIYNLQH [YML031W/NDC1] | 1.26 ± 0.029
87 | YKVEHPFFARFKLRIQT [RPB11] | 1.31 ± 0.16
88 | YKVENVTLYWNNAKLLT [ESC2] | 2.19 ± 0.043
89 | YLAKLSKQLSLEEKKKR [IRR1] | 2.86 ± 0.085
90 | YLDQHKRTRLESLKNLN [SMC3] | 2.58 ± 0.21
91 | YLFDEIDAALDKQYRTA [SMC3] | 3.12 ± 0.064
92 | YLFHNDRIIHTWRTQLA [ECM29] | 1.91 ± 0.039
93 | YLKESKRKYDEITHPPS [SWI3] | 3.05 ± 0.11
94 | YLLEELESYLIVHHPYQ [SSN8] | 2.36 ± 0.044
95 | YLMTYPQQPMVKTKTIE [RET1] | 1.08 ± 0.065
96 | YLNGTLIGSIRFPTKFV [RET1] | 1.56 ± 0.044
97 | YLYCLDNNITEMLEENF [YCG1] | 2.73 ± 0.039
98 | YMEQGNNKIITLVKGPK [SKI6] | 2.96 ± 0.034
99 | YMHDTELNYFVGCKNLE [GRR1] | 3.21 ± 0.046
100 | YNEFLYSKAGREELERV [QCR8] | 2.98 ± 0.1
101 | YNNRSLLDFNTALKQYE [RPN6] | 3.13 ± 0.099
102 | YPDLKAFHNNLKFLYLL [MED1] | 1.93 ± 0.037
103 | YPMMHQVRNQVFMLDTK [RGR1] | 2.75 ± 0.068
104 | YPNSSKLKRNSDRREHD [LIN1] | 3.03 ± 0.075
105 | YQCAMGKQAIGAIAYNQ [RET1] | 2.65 ± 0.049
106 | YQISAYQTRARQKARTD [RPR2] | 2.407 ± 0.023
107 | YQLYTSNPSGNYTGWKA [PRE9] | 3.17 ± 0.04

Row | Sequence | protein stability index
108 | YQMQSNYESVFTYNKFL [YIL149C/MLP2] | 1.5 ± 0.048
109 | YRTPGSSGVLSSNIAGT [SSN2] | 3.38 ± 0.088
110 | YSIPHPSENLLNIRIQT [RPC19] | 2.38 ± 0.11
111 | YSKAAEPHAVSLAWSAD [ASC1] | 2.72 ± 0.078
112 | YSKAKYPDLQPFVLAEN [CDC53] | 2.26 ± 0.078
113 | YSLQPSVDITGGPWFTD [RPC34] | 2.49 ± 0.064
114 | YSLRLINKEIFHHWLVE [SRB8] | 1.59 ± 0.068
115 | YSPNTLGHPDNYIPGNP [COB] | 2.43 ± 0.047
116 | YSTLKELLEYSDDIAEN [YCG1] | 2.59 ± 0.04
117 | YTKKHLSSHSSTNSNSK [RPN4] | 2.95 ± 0.061
118 | YTQQQALEYIGAKVKTM [RET1] | 2.1 ± 0.059
119 | YTVNVVDVFAMPQSGTG [RPN11] | 3.07 ± 0.077
120 | YTYLYVRMLASPMLYKV [BRR2] | 1.26 ± 0.11
121 | YVDPETTYTYQQPNPLQ [ROX3] | 2.86 ± 0.12
122 | YVMERPKNVPTSKWLNS [YDL116W/NUP84] | 2.82 ± 0.043
123 | YVNVAISIYNMLPPKSV [SSN2] | 2.12 ± 0.029
124 | YWSDKKADTDTLLYEQI [SNF5] | 2.3 ± 0.049
125 | YYGLVIDLLLLGQERAT [PRP8] | 1.38 ± 0.039
126 | YYLWTGKQVFSLLIKPN [RPO31] | 1.59 ± 0.2
127 | YYSRITLLRLNELLDLT [RPN5] | 1.97 ± 0.072
128 | YYVGQVMRNNESTETGY [DIS3] | 3.23 ± 0.064
